Assay [1] concerns the target LRP2 CR89 (human) (UniProt P98164). In words: phage binding: equal amounts of phage incubated in wells coated with LRP2 CR89, bound phage eluted and titered; in the presence of 50 mM EDTA.
For assay [2] the target is unchanged. In words: phage binding: equal amounts of phage incubated in wells coated with LRP2 CR89, bound phage eluted and titered; no EDTA.

Chain of LRP2 CR89 (human) (P98164 1025-1102): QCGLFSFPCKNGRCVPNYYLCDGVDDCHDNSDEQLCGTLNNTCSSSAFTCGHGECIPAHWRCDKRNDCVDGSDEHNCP

B1: RAP phage (protein, not shown: large carriers)
chain: YSREKNQPKPSPKRESGEEFRMEKLNQLWEKAQRLHLPPVRLAELHADLKIQERDELAWKKLKLDGLDEDGEKEARLIRNLNVILAKYGLDGKKDARQVTSNSLSGTQEDGLDDPRLEKLWHKAKTSGKFSGEELDKLWREFLHHKEKVHEYNVLLETLSRTEEIHENVISPSDLSDIKGSVLHSRHTELKEKLRSINQGLDRLRRVSHQGYSTEAEFEEPRVIDLWDLAQSANLTDKELEAFREELKHFEAKIEKHNHYQKQLEIAHEKLRHAESVGDGERVSRSREKHALLEGRTKELGYTVKKHLQDLSGRISRARAEAETG
modifications: Displayed on M13 phage as an N-terminal fusion to pIII; pIII letters not given.
In the case of B1, the cfu recovered in assay [1] was 146 cfu; in assay [2], 520 cfu.

Values taken from patent US20090269346A1.
